Results published in the domain aggregation screens of Martell et al. (2025).

Assay: soluble fraction after stress (log2 fold change); higher = more stays soluble; pooled small domains, quantitative proteomics
Settings: stress: 75 degC
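Note: 20 min heating vs room temperature control held 20 min.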

Sequence | soluble fraction (log2)
HMDPTYYFNLYPNPSKDEVSLFTNFTGKINIEILDLAGKSILSDNPISTISLVSLKEGLYLVKVKS | -0.178
HMDPYLSGLLQKLAETDKKISFTRLRSEDLDGESREAIYEFIEKYSGRFGVRWLLNEFGLSPSVYYNYLHS | -0.727
HMDQDLGFLINKYFELGKDYNTLVEIYEKIKEYIASIDKKMLEYTKNFTIEQLKKWLDDGTINNIILTLG | -0.122
HMDQEDAYMQVRQVFDTLLVSELSKRIFAWRFFEGKSFAEWPGAESQKFLYDTFNRILLIISAKIRRKNA | -0.0464
HMDQHERQQLLIHIAGGEREALAELYQRTRSAVYGLALSYLKNAHDAQDLTRDVYVQVWDRA | -0.0158
HMDQQTKFKTALAALAASAETKDRKLTKADVKEFLEDMDLGEEQMKLVYAYLASKHIHVEGAE | ≥ 1.04
HMDQSIDADIINLNFSKNIIKIEENVYYKNNNAKVNADKIEINIETKKLKISMNEQEDEVEIFAK | 0.552
HMDQTIFFGQQKAINNLSTDAGLSATELDEYLKKRYKRPLYQLTQAEGAEIIKGFQDGALSRSSILDYTK | 0.0434
HMDRKFFFNEQYEDYINSDLKVKFMNDSGSKKSFQGELTKVTPSDLFLESEKESVKVPFSSIIQANLI | -0.197
HMDRLTISTLGNGLFRVNGAEAEATVYNLSGNVVKVVPADEVIDLSSLAKGVYIIHVDGEAFKVI | -1.13
HMDRMFQPETWSKIYQWVMNDPQVPDKEDVLALIRRHFGNFEKLIKLLHYLDGGKPYAYLSEH | -0.473
HMDRSLYVGDAVGFDSARGLMEIEVKNKFSVVAVSLKKKPSGNFITPLLRMEKKKGEAVTVAPGSGHR | -0.514
HMDRSQRDQEQAQLIRLVQQAFDDSGQRYGAEKIRITLAEGGIRVSTKRIAAIMQELDLRSI | -2.41
HMDRSRAEIDLGHVETAIRTLAEGGMVQEYAIGGRSLKRYKMGELLQLKAELENEINMERRKEKMRQ | 0.212
HMDRVDGWLHDGKLYLRVVDYKTGKKSFDLAELRYGLGLQMLLYLFTLKEEGQMLFGGHEIVPAGVL | -0.514
HMDRVSEITLTRLRDYAADGQVRTATLTHRTNVVTGTLRDGRRFSAGVPPMYGDELTTFLLDNGVRVDSDN | -0.41
HMDSDMGQQLKTLLTVGTFMSSKELKAIAQQLGLKKPTDLKEWVELESGTQRIEGKPTKGYWIKMNDINN | -0.367
HMDSGINVWASAEGLTITADKDTTVYVYDIYGRTIHTSEVKAGTSDIAINTKGIVIVKANGYTKKII | -1.77
HMDSILSIVGGEESYKALLAWAENNISQQELQQLETILKSGNVPAIKRVLVTLMNRFNQAQS | -0.114
HMDSINGEASISRELHGTRFDQAAAILFPEFSRSRLQAWIGAGALTLDGQTARAKDKVTQGQHLVLAAAVE | -0.54
HMDSINIDEETAKLGPNAPQIIDGIKKWGQGLVAKGVWSDEDFDEFKVFAATSSGINALNKIRKYY | 0.188
HMDSKYLRIFSTLIDEMEKMSPGEQLQSERELSQRFQVSPMTVRRALHKLSTEGYTSAIPGKGTFVRK | -0.707
HMDSLELADEVGRVSEALQELRPHQREVLELSLVHGRSHQQISEKTGLALGTVKSHARRGLMRVREMLGV | -0.381
HMDSLIEYENERSLRRLINENLSDYERTVWWLYYAGADAAHIAEQTGRSKRSAENAITRVRRKLRALITQS | -1.33
HMDSNISVSEALEMVDKGSVKEIIVEGEKLYITNQDGKQYTSSKEVGVSLIELMKDSGIDPIKSDVNIIVK | 0.463
HMDSRVRHAVLTTLLGKRIVDDLVEKGELPGTPLVLATAPGLDRDLEQLIAQRVVTALLTTV | -0.0018

Sequence | soluble fraction (log2)
HMDSSALEPIVDQIIADNPKQVEQFQAGKTKVLGFFVGQVMKQTDGTANPKQVNELVAARLKSA | 0.0418
HMDSTDSIIHYVRAHRSLEVKNLSFAEARFKKVVELEPNFARGWLGLGEVSILKNNFENASIYLDKALE | -0.282
HMDSTLTNEIYNELYRAITHQELKPGQNLTLTMLKKQFNVSHTPIREALTRLSADGLVTYHPNKGMKVT | -0.444
HMDSTTHALALVRTLPRDQAEAVLLRVVADLDYADVAEIMGRSPGAVRVLVHRGLRRLEQELATRRT | -0.574
HMDSVEYRVITGDDVNFRKGPSTDYASLGKLNKGYKVEYISETNSWSKVKYNGQTGYVYSKYVAQT | -0.155
HMDSVTVPDISGYSPKAAEDSINNAGLKINEQGLSGSGDGQVVERTSPSAGSKVKKGDSVTVYYSKA | 0.0423
HMDTDVFLMDLRGESRDYAEEVLINNNLEVKVIILPFSKRHYPGKVVEMRPSPFTKVKKGRIITLSVAGN | -3.73
HMDTDWDVSGVTPDQYRLLFSVLGGLAGVKDVGLNPDGLRIIHTPEALPSIEKAFQANGLKLKRNVD | -0.0943
HMDTETLIDKYQLNASEAAVLRFMDKNRDSLRDLGIRDVARASYVSTATIVNMAKKIGYSGYSELVFAYGS | -3.69
HMDTFSVAIGTKTPDGSSVGEVKTISRDELLLLEDEVAEDPTKEIIFTGGTKDSAQAALDGWIDYNTNLAS | 0.0395
HMDTFYKNLSKKIKTIREKLSFSQEALAKELGISRVAISQIENGDRKISAEEIAKLSRVFNVPTDILLN | -0.281
HMDTHDVQVPQEGQGLRLDLFLTDHIEGSRSFIQTIIKDGHVILNGKKAKANSRLNEGDYVVWSIPKPE | -0.288
HMDTHRLNYSDFVAEVQAQRVSKVVIDGYTIVGQRTNGETFETVRPALQDPKLVDDLLQNNVIIEGKQPE | -0.0116
HMDTIVHFLSDGRRITVRIKRNARKNIILRPMAADAVSATIPPWLGRRQLSAWLSEREDLLLSVLSRAA | -3.34
HMDTLESYVKRLEKLEGIADSFKGVSKAFALQAGREIRIMVESEKITDEEAVWLSKDIARRIENELEYPG | -0.331
HMDTNKMLIVNSISNGMKRLQELQDPQLAEIQKTFSGLDEQKATSAQLAQINNIINNRIAEIEG | 0.23
HMDTNPKVIITMDGVNVRSSASTGSDILFIAEKGEEYELISESGDFYKILYEGNKEGYVASWLVETSE | 0.239
HMDTNVKLLSPKQADFFASKLANNQNFSSKFAKVGEDMQPFIERISSELQQDISQVIVYMPYLLESGFKQ | -0.328
HMDTNVPVPNVNGMTLNQAKAALEAAGFHVAVNWLGEKSDNNSVISYEPNGSAAKGTTITITVIAQPEQDG | 0.0988
HMDTPPGLSPEEQAIIDIITTRGDATINELTASIDIPTPRLMGMLVDMEFRSLIAAIPGGRYRI | -1.82
HMDTRQFWEQWVADEIRTFEHKDRKQLFGWFEGNKPKLGQMKKLGYGDLLTKVQTSWDEIYQQKE | 0.0857
HMDTRSSARKALDAVNLLLETYGAKAYQHSYEIAGRRQQFQTPGDFMAFRSRLMAEVATEENAARINA | -0.211
HMDTSKIDYSEFITMLDKGEVESVVLKSDTLTVTLKHGTGMAAQTKTVTLMEDLSELTKRLEKAGVKSFDK | 0.614
HMDTVIAEVTASILNLRRSAGTSSDIIGKLNKGEKVSIIGGSGNWKNVRTSGGITGWVYHEYLSTY | -1.46
HMDTYDSIDSILEERHLSRRKLAQAIGLPPSTFQSMMSRKSGMTLEVLMKIVSYLQVSPDAFW | -3.17
HMDVAWDAIKAKLKEVVDAEDKAHPLNDDQIVKALGESGITIARRTIAKYRDLLGIPPARKRKA | -0.213

Sequence | soluble fraction (log2)
HMDVIGLEAAKSAAVKDAGISSPTFTKATLDRDDGRSLYEIEFISGSTKYEYDIDALTGSVLSKKTRALS | 0.207
HMDVKPWERQEGESAKAFEAFTIYAGLGADRSLRAVAQQLGKSKTLMDRWSSTYSWVARAAEYDADLQRK | -0.489
HMDVLFGNRLRQLLDERNISQAHFADRIGVSRSRMNNYVAQRSEPDYATLIRIANTLDTSIDFLLGKS | -2.36
HMDVLIQEIGKRLRIQRLAMGLTQEELAKRAGISLSTLKLMEQQGKGSLQRLAKVAVVLDLDGDLRGLF | -2.87
HMDVLKVFSHNVRRYRTQLGLSQETVAFRTGLHRTYISAVERGKRSISLDNIQKIADALEVETYLLFI | -1.76
HMDVLNPGDKAVTTASWLNFRTGPGMQNKVASVLARNTTVNIIEKSNEWYKVSLANGSTGYVHGMYLSKIT | -1.73
HMDVLSQYGSRGEEVGKIQTRLKSWGYFSGEVTGYYGSQTTEAVKRFQQKHGLSATGVADRKTLELIGIS | -0.307
HMDVLTARENEVLQLLAKGMSNKEIASVLVITEKTVKAHVSSILSKLNLSDRTQAALYAVKNGI | -0.763
HMDVNMLVTGMLHKGEKSFVRVSFLRGKDWAEGIVPDAKIEKSQGFMEEEVARLEAYLLEQKSMIMEQA | -1.83
HMDVQGFVMDLDKPLDKEPIVEGFELKLEDSLTLVAAVNKDKSINSLFDELSKLGIKVKSMRNPP | 0.0316
HMDVQNLTKKNQEFINIVTHQLLQSGKSDEDIQTILAKTLPEIIEKQKQGIPARSFLGAPTAWAAQFI | -0.0596
HMDVRLAKVYMLPANPYLRFIEFDDGTHGKFRAKPGKFGLGSVVKVKREDGDMYTLEGNYDGKDRL | -0.763
HMDVSPVRLIREARGLSQVEVAKAAGLSRAAYQNIEVGKTVPRASTMVNIARALGVSMDDLLAPV | -0.437
HMDVSVPDVTGTRLDRAQSLLEAQGLTLGKVEEFFHATEPAGIVYDQEPRPGTRVDEGTAISVSVSKGPEA | 0.323
HMDWFDELKVSTDDSGRVTAPEESEFMFQTSNEKIFAGGDMVRGSDLVVTAIWEGRQAAEGIMDYLD | -0.02
HMDWPDDETIARIYALIKSDISSQARKVMELRFSEGMPFARIAAAMGISETAVYRHLSHALTVIRQKLN | -2.14
HMDWREMTAWMAELLKRRTGDDVETWNARVRESGAHDEASLRAWLTEQGVTGYAQTLLVMERFGYPDFF | -2.89
HMDYADISYKIFMNHIKNGQVERVELSGDPRIMGKLKDGTYFVTDNPRTENFKEFLLLNNVQVIETN | 0.738
HMDYEVPEELQQKFEEFPRLKEAFYQLTPGRQHQYLYYFSQAKRSQTRYNRIDKYMNAILQGKGMK | -1.67
HMDYINALTTAGITDAKVIVTAPFDVSGTAALTGIYKAYEDITGSSLNEIAKAVGVEELITTGNLA | 0.23
HMDYKAELDNIIRDHLDMEGPLLPVLHAVMARFSYIPKDAIPIIARKLNLSSAEVSGVISFYHDFKKEK | -1.81
HMDYKYYIVKEPMVVKNLELPVGTRIVYFNTSLFGDSESSRPLKEKNIYQIFFPDDKPLIWGGVPVSLIER | -2.24
HMDYNLTKNQKIVFNLLQNSGEPLKAYTILESLKREGLKSPLQVYRALDKLVELGIIHKIESQNSFI | -0.334
HMDYNMEEWSLTADQLKSGDTILILNLGKTATLLESTRGKKNVRVRMGNIKTIVETSSIRGNPHQ | -1.77
